Measurements as given in PMC5270756.

Substrate: c1cc2ccc3cccc4ccc(c1)c2c34
Experiment: oxidation kinetics
Type: biochemical, Homo sapiens
Details: heme; NADPH

B1: P450 1A1 (Homo sapiens) (protein)
chain: MLFPISMSATEFLLASVIFCLVFWVIRASRPQVPKGLKNPPGPWGWPLIGHMLTLGKNPHLALSRMSQQYGDVLQIRIGSTPVVVLSGLDTIRQALVRQGDDFKGRPDLYTFTLISNGQSMSFSPDSGPVWAARRRLAQNGLKSFSIASDPASSTSCYLEEHVSKEAEVLISTLQELMAGPGHFNPYRYVVVSVTNVICAICFGRRYDHNHQELLSLVNLNNNFGEVVGSGNPADFIPILRYLPNPSLNAFKDLNEKFYSFMQKMVKEHYKTFEKGHIRDITDSLIEHCQEKQLDENANVQLSDEKIINIVLDLFGAGFDTVTTAISWSLMYLVMNPRVQRKIQEELDTVIGRSRRPRLSDRSHLPYMEAFILETFRHSSFVPFTIPHSTTRDTSLKGFYIPKGRCVFVNQWQINHDQKLWVNPSEFLPERFLTPDGAIDKVLSEKVIIFGMGKRKCIGETIARWEVFLFLAILLQRVEFSVPLGVKVDMTPIYGLTMKHACCEHFQMQLRS
In the case of B1, the Km is reported as 1.7 µM.
